Test results published in US20260085338A1.

Columns and labels:
[1] = molecular target: P. putida RNA polymerase (Pseudomonas putida); experiment: cell-based or functional assay
[2] = molecular target: phi15 RNA polymerase (Pseudomonas phage phi15); experiment: cell-based or functional assay

| Substance | fold induction (FITC-A of +RNAP,-lys against -RNAP,+lys), P. aeruginosa [2] [fold] | fold induction (FITC-A of +RNAP,-lys against -RNAP,+lys), P. putida [2] [fold] | induced (%) cells with FITC-A above 10^4, P. aeruginosa, -RNAP +lys [2] [%] | induced (%) cells with FITC-A above 10^4, P. putida, -RNAP +lys [2] [%] | leaky expression (msfGFP; P. putida, 5 mM Rha) (nM 5(6)-FAM/OD600) [2] | median FITC-A, flow cytometry, P. aeruginosa, -RNAP +lys (5 mM Rha) [2] [FITC-A] | median FITC-A, flow cytometry, P. putida, -RNAP +lys (5 mM Rha) [2] [FITC-A] | also measured |
| --- | --- | --- | --- | --- | --- | --- | --- | --- |
| Phi15 GP16 RNA polymerase inhibitor | – | – | – | – | – | – | – | cell growth (OD600) of P. putida after induction with 10 mM Rha [1]: 1.4 OD600 |
| Pf-10 lysozyme (enzyme) | – | – | – | – | – | – | – | decrease in msfGFP output (leakiness of the phi15 RNAP; P. putida, 4 mM Rha) [2]: 84% |
| phi15 lysozyme (G3RQ) (enzyme) | 130 | 9.64 | 5.94 | 66.7 | 11 | 527 | 12700 | leaky expression from the phi15 RNAP (msfGFP; P. aeruginosa, 5 mM rhamnose) (5(6)-FAM/OD600) [2]: 29; leaky expression from the phi15 RNAP against the wild-type phi15 lysozyme (P. aeruginosa, 5 mM rhamnose) [2]: 13 fold lower |
| phi15 lysozyme (wild-type) (enzyme) | 7.36 | 4.1 | 77.5 | 80 | 122 | 33400 | 17800 | leaky fluorescence with lysozyme induced (P. putida, 4 mM Rha) (nM 5(6)-FAM/OD600) [2]: 77 |
| phi15 lysozyme (G3R) (enzyme) | – | – | – | – | 57 | – | – | – |
| phi15 lysozyme (AA1-9>Pf-10 (AA1-10)) (enzyme) | – | – | – | – | 23 | – | – | – |
